In the DeepSol protein solubility set:

assay: soluble on expression in E. coli; label from the status in PepcDB or PDB records

Sequence	soluble on expression in E. coli
MSLDNLALRMRPKTIDQVIGQEHLVGPGKIIRRMVEANRLSSMILYGPPGIGKTSIASAIAGTTKYAFRTFNATVDSKKRLQEISEEAKFSGGLVLLLDEIHRLDKTKQDFLLPLLESGLVIMIGATTENPFFSVTPAIRSRVQIFELEPLSNQDVKEALQIALSNPERGFDFPIELDEDALDFIATSTNGDLRSAFNSLDLAVLSTPENDEGIRHITLDIMENSLQRSYITMDKDGDGHYDVLSALQKSIRGSDVDASLHYTARLIEAGDLPSLARRLTVIAYEDIGLANPEAQIHTVTALDAAQKIGFPEARILIANVVIDLALSPKSNSAYVAMDKALADLKTSGHLPIPRHLRDGHYSGSKELGNAQDYLYPHNYPGNWVKQDYLPEKIRNHHYFQAEDTGKYERALAQRKEAIDRLREGHHHHHH	soluble
MIDNPTPKSSMTFKELYDEWLLVYEKEVQNSTYYKTTRAFEKHVLPVIGSTKLSDFTPMELQNFRNDLSEKLKFARKLFGMVRKVFNHAALLSYIQANPALPVTSQGIKKKVEELEHHHHHH	soluble
KKDFTWKTNLTFSLNRNKIVDLYGDKKDDLANRWFIGQPMKVIYDLEKVGIWQTEDKELAAKYGQVPGHIRVADLDENYVIDERDYKVLGSPSPDWTAGMTNTFTYKNWDLSFYMYARIGGTYNDDFTYMFTAWDNEHWNKLNVKYWTPENHSNEYQQIGAQSYHTQVLGKISGSFLKIQNITLGYTLPENWMKKMKMKNARAYINVQNPFTFTDYLGPDPETIGEDVYKSLSLYPMTFTFGVNLTF	not soluble
MEWFGIGAGTLRQGDRADFAVIDPTHLDESVDGYHEEAVPYYGGLRRMVNRNDATVVATGVGGTVVFRGGQFGGQFRLEHHHHHH	not soluble
MAHHHHHHMGTLEAQTQGPGSMKGEPKVIERLNEALFLELGAVNQYWLHYRLLNDWGYTRLAKKEREESIEEMHHADKLIDRIIFLEGFPNLQTVSPLRIGQNVKEVLEADLKGEYDARASYKESREICDKLGDYVSKQLFDELLADEEGHIDFLETQLDLLAKIGGERYGQLNAAPADEAE	soluble
MGSDKIHHHHHHMTVLILTNPFDITADDVILRLTERGVPVVRLDPADFPQQVVLHSEIGGNGWTGTLTTPHRILDLSTVTGIWYRRPRKFRLPAQMSQAEYEFAATEARRGFGGIINSLTGWINHPSAIGRAEYKPYQLHHAVQAGLNVPRTLITNDPKQAKGWCARVGDVVYKPLSAPSWLENGDTYVVFTTPITPDQWGDPAIGRTAHMFQQRLDKEFEVRLTMVDGKAFPAAIHAHSDAARIDWRSDYDALTYSIPTVPQRVLTGARDLLRRLHLRYAALDFIVSPDGRWHFLEVNPNGQYGWIEEHTGQPISDAIADALTRKEN	not soluble
GPGYNEPQDKKTMMMNEEDDGNGMDELLAVLGYKVRSSEMADVAQKLEQLEVMMSNVQEDDLSQLATETVHYNPAELYTWLDSMLTDLNPPSSNAEYDLKAIPGDAILNQ	soluble
MNKLAVLYAEHIATLQKRTREIIERENLDGVVFHSGQAKRQFLDDMYYPFKVNPQFKAWLPVIDNPHCWIVANGTDKPKLIFYRPVDFWHKVPDEPNEYWADYFDIELLVKPDQVEKLLPYDKARFAYIGEYLEVAQALGFELMNPEPVMNFYHYHRAYKTQYELACMREANKIAVQGHKAARDAFFQGKSEFEIQQAYLLATQHSENDNPYGNIVALNENCAILHYTHFDRVAPATHRSFLIDAGANFNGYAADITRTYDFTGEGEFAELVATMKQHQIALMNQLAPGKLYGELHLDCHQRVAQTLSDFNIVDLSADEIVAKGITSTFFPHGLGHHIGLQVHDVGGFMADEQGAHQEPPEGHPFLRCTRKIEANQVFTIEPGLYFIDSLLGDLAATDNNQHINWDKVAELKPFGGIRIEDNIIVHEDSLENMTRELRLRLTTHSLRGLSAPQFSINDPAVMSEYSYPSEPLSYEEEIKKSTFIVHVRTRRILVRRRTLSPILIAVTPMPAITAGLM	soluble
MQTLTVVGLGRLGRSLGRLAADSGAYRLLDLMGRRAQPLAEGRDFVGAGRPVSEMRQLAPADLYLLAVPDAAIASCARGLAAAGVAPAGSVVFHASGVGDASLLRPLAEQGVLTASLHPAFSFADPKRAVEGFAGTLCALEGDEQACLRLEAFARALGGRPFRLAPGGKAAYHAGLSVASNFLVALTAMAGQLTARAGVPPELARQLLGGLMRQTLDNALELGPYDALTGPILRGDIGTVERHLEVLADTGLISAYRTLGRQVVELAGERLQEPARQQLLALLYLEHHHHHH	soluble
MAHHHHHHMEKLREHSERPVPDMLVLPLTASLPQEVQSRVFEPTPPRCRKVVLATNVAETSITITNLYFVVDSGFCKQNVFDPKTGMEQLKIVPISQAQAQQRAGRAGRIGPGKCFRMYTELQFQMDMEPATVPDIQRSNLFHVVLQLKAMGINDLFALDLMDPPPQETLVSALQKLRYLEALDDDGLLTPLGGRMAQLPIDPSQSKTLLTAVDMGCCEPVLTIVSMLAVQKRGVFYRPRDQHEASDAAKRQFHQPEGDQITLLAVYDAWVANGLSEEWCKRNFLKHRILMEARDTREQLSDMLHKRHASIPHHNDDALTEVRRAITAGYFFNVAKRITDVAYATLAERREVYVHPSSCLRDAPPKYVLYNELQLTNREYMRELLVIEPQWLVELAPAFYSRPRKGKLTKEQRAERLNPILRAWENGSSWRISKLRRRK	not soluble
MTGNAKLIDRVSAINWNRLQDEKDAEVWDRLTGNFWLPEKVPVSNDIPSWGTLTAGEKQLTMRVFTGLTMLDTIQGTVGAVSLIPDALTPHEEAVLTNIAFMESVHAKSYSQIFSTLCSTAEIDDAFRWSEENRNLQRKAEIVLQSYRGDEPLKRKVASTLLESFLFYSGFYLPMYWSSRAKLTNTADMIRLIIRDEAVHGYYIGYKFQRGLALVDDVTRAELKDYTYELLFELYDNEVEYTQDLYDEVGLTEDVKKFLRYNANKALMNLGYEALFPRDETDVNPAILSALSPNAD	soluble
MAHHHHHHMPSDRVPSGDGFNNPYGNTTLVGNWLEDRLQQRIVHKRRGGAAATWCAQGIFEDPAVTMARHPAEAQAALLHSTYDVDYGHRPGRTQRTASGGVDNSAAASTLMRGSKHNANAAGPGSASSTAKGGIDKVLLFSIDPVADPAAPLPLSTNADTYGAFYYGNDNGSVDNNGARHAGSATGATTSSPADQGDGGATAPPADADRNLYDSVSRAVAAAAAPSSSFRMPRAPMQRGANADATFSSSPVPRRHMLSLGVATTSTFGHTGWTLASSSATSAADHVGAAPWRPLQRHRLPNKDSMDDERWCSSKQAADTPVEHFTLQQRLPPVRM	not soluble
MEKKVGTDRVKRGMAQMQKGGVIMDVVNAEQAKIAEEAGAVAVMALERVPSDIRAAGGVARMADPRIVEEVMNAVSIPVMAKARIGHITEARVLEAMGVDYIDESEVLTPADDEFHLLKSDFTVPFVCGCRDIGEALRRIGEGAAMLRTKGEPGTGNIVEAVRHMRQVNGQIRQIASMTDDELMVAAKNFGAPYELVKEIKTLGKLPVVNFAAGGVATPADAALMMELGADGVFVGSGIFKSDNPAKFASAIVQATTYYTDYE	not soluble
MMLVRSVFRSQLRPSVSGGLQSASCYSSLSAASAEAERTIREGPRNDWSRDEIKSVYDSPLLDLLFHGAQVHRHVHNFREVQQCTLLSIKTGGCSEDCSYCPQSSRYSTGVKAQRLMSKDAVIDAAKKAKEAGSTRFCMGAAWRDTIGRKTNFSQILEYIKEIRGMGMEVCCTLGMIEKQQALELKKAGLTAYNHNLDTSREYYPNVITTRSYDDRLETLSHVRDAGINVCSGGIIGLGEAEEDRIGLLHTLATLPSHPESVPINALLAVKGTPLEDQKPVEIWEMIRMIGTARIVMPKAMVRLSAGRVRFSMSEQALCFLAGANSIFTGEKLLTTPNNDFDADQLMFKTLGLIPKPPSFSEDDSESENCEKVASASH	not soluble
MSLNTVLRLPLKYPSTNKELKSHEYFESQIAYTGCLIATTTHMVDHISWRLNNDLKTITLTPICISNPFQLECRTISLLLPSQVYPHCIDAVYHGEEGGYLVVDVIDENYLWITLRIEMNDFLHNTKNFRPLTLDQFESWGHISVPYSFELRSNPYCLRVLDERNVVVSLKDGGLLHFQRSSVLADFNVFNCEESAHFHLGGILDGIFKSGRADLTVDGVSSNAAIDATIVPDPSKSLIATLTVSKTIKFWDLKEHSLLRERTIHPQDTNTWLSFGPARYLQCYGNVLGVHSLLQTKHSTSIDFWDVSPLKEDQKSYKILHTVELLSPTINGAPSDSPFSNDIWFIQDFTLKFEKGNFTVLWKSNNSSILTIYDLKNLAENDKPPKLSQWTLSGSEGHHHHHH	not soluble
MNYELLTTENAPVKMWTKGVPVEADARQQLINTAKMPFIFKHIAVMPDVHLGKGSTIGSVIPTKGAIIPAAVGVDIGCGMNALRTALTAADLPENLAELRQAIETAVPHGRTTGRCKRDKGAWENPPFNVDAKWAELEAGYQWLTQKYPRFLNTNNYKHLGTLGTGNHFIEICLDESEQVWIMLHSGSRGIGNAIGTYFIDLAQKEMQDQLETLPSRDLAYFMEGTEYFDDYLRAVAWAQLFASLNRDAMMENVVTALQSITQKTVRQPQTLAMEEINCHHNYVQKEQLFGEEIYVTRKGAVSARAGQYGIIPGSMGAKSFIVRGLGNEESFCSCSHGAGRVMSRTKAKKLFSVEDQIRATAHVECRKDAEVIDEIPMAYKDIDAVMAAQSDLVEVIYTLRQVVCVKG	not soluble
MGSDKIHHHHHHMDITALQQQLELIQQNDYTQLRHIDINELTLHMLQYIGTTDSYVRYQLIYKCFVHFIHHEFLMDDQLKLLLQTCLSDEYLYCDIYSPHSDGVFTRSYTVSLIALILQFANSHYFCTEEDIEEIKNKLITYTNLETDFRGYIENKGWAHCLAHVSDAFTEIVHNSYTTFEWYEELIHCLLNKIFIPSDLFHNNEDERIVTPLLAMLYHDFPQDELISIIQKKIKRLPQIRKRLSLNEYCILCANIKTFLRTLFFRTKDDHNLAFTARKTERMLKELPNYY	not soluble
MGSDKIHHHHHHMPKLVTWMNNQRVGELTKLANGAHTFKYAPEWLASRYARPLSLSLPLQRGNITSDAVFNFFDNLLPDSPIVRDRIVKRYHAKSRQPFDLLSEIGRDSVGAVTLIPEDETVTHPIMAWEKLTEARLEEVLTAYKADIPLGMIREENDFRISVAGAQEKTALLRIGNDWCIPKGITPTTHIIKLPIGEIRQPNATLDLSQSVDNEYYCLLLAKELGLNVPDAEIIKAGNVRALAVERFDRRWNAERTVLLRLPQEDMCQTFGLPSSVKYESDGGPGIARIMAFLMGSSEALKDRYDFMKFQVFQWLIGATDGHAKNFSVFIQAGGSYRLTPFYDIISAFPVLGGTGIHISDLKLAMGLNASKGKKTAIDKIYPRHFLATAKVLRFPEVQMHEILSDFARMIPAALDNVKTSLPTDFPENVVTAVESNVLRLHGRLSREYGSK	not soluble
MNIIDFRFRPNTEAILKGISSNPAFKGMCQSIDFNKMLPQTLEEVVEELDRHHVVKAVISGRDCETTYGAKSNNPSVIEFCHKFPDKFIGFAGLDPHKGMAALAEITHAVHEEGIKGAAIDPYLARIYVNDAKYYPIYAKCCELGIPLIIATGPGTLVPNAVIDHVAPRYIDFVARDFPELKIIASHGGYPWVNEMITVAQRNANVYLELSEYEFFPQSSAYIEAANSILSDKIMYASAHPFVDFKLALKNYEQLPLKPEVREKVMYKNAAKVLGLSDGTFSASKAMDAQEVQMIIENVIAQLSQRGLLANR	not soluble
MRRLNRFKAPDEKVNTLFQVYKTISFWKVVKNTVVVEFGRFFPWMGGKRNIYRACLGMKIGKKTAIAYKVMPDLFFPEKITIGENSIIGYHTTILTHEYLLSEYHVGEVVIGKNVMVGANVTILPGIEIGDGAIVAAGAVVSKDVPPESFAYGNPLVIKEKAALEHHHHHH	soluble
